{"source": "paper PMC11234873", "about": "(Chemical Science, 2024)", "assay": "High-throughput protein phase separation", "format": "physicochemical", "conditions": "25 μM Hsp90α; 96 LLPS-inducing conditions, sum of averaged grades of 15 subzones", "data": [{"substance": "Hsp90α: full-length human Hsp90α (UniProt P07900), N-terminal 6×-His tag, expressed in E. coli", "values": [{"measurement": "phase separation score (PPS score)", "result": 3.1}]}]}
